The text below walks through data of PMC5138414, “Structural Basis for Redox Regulation of Cytoplasmic and Chloroplastic Triosephosphate Isomerases from Arabidopsis thaliana” (Frontiers in Plant Science, 2016).

Test in all cases: SEC; analytical size-exclusion chromatography, Superdex 75 10/300GL, calibrated with Bio-Rad gel filtration standard, 0.5 mL/min, 100 mM TEA pH 7.4, 10 mM EDTA, 1 mM DTT; dimer of identical subunits
(In gel filtration, larger molecules generally elute earlier.)

In assay [1] the target is pdTPI-C89S (Arabidopsis thaliana).
Assay [2] deals with pdTPI-C15S/C89S (Arabidopsis thaliana).
Assay [3] addresses cytoplasmic triosephosphate isomerase from Arabidopsis thaliana (Arabidopsis thaliana) (UniProt P48491).
Assay [4] concerns the target pdTPI-C15S (Arabidopsis thaliana).
Assay [5] deals with chloroplast triosephosphate isomerase from Arabidopsis thaliana, without the predicted chloroplast targeting sequence (Arabidopsis thaliana).

Broadly, the stoichiometry N is the number of molecules, sites or subunits per partner or assembly.

In the case of pdTPI-C89S (enzyme), the stoichiometry N in assay [1] was 2.
In assay [2], pdTPI-C15S/C89S (enzyme) came in with a stoichiometry N of 2.
In assay [3], “cytoplasmic triosephosphate isomerase from Arabidopsis thaliana (from UniProt P48491 1-254) (enzyme)” had a stoichiometry N of 2.
Substance pdTPI-C15S (enzyme) showed a stoichiometry N in assay [4] of 2.
As for “chloroplast triosephosphate isomerase from Arabidopsis thaliana, without the predicted chloroplast targeting sequence (enzyme)”, the stoichiometry N in assay [5] was 2.
